Assay results: PMC9942873
Residue numbers refer to the chain shown, from its start. Read-outs that look alike come from different tables or passages of the source.

B1: RUPA-44 (Fab) (Fab, V domains shown)
VH: QLQLQESGPGLVKPSETLSLTCTVSGGSISRSPYYWGWIRQPPGKGLEWFGSIYNNGSTYYNPPLKSRLTISVDTSKNQFSLKLSSVTAADTAVYYCARHGGSTGMKVVVIAPPDYWGQGTLVTVSS
VL: DIQMTQSPATLSASVGDRVTITCRASQSISSWLAWYQQKPGEAPKLLIYKASSLQSGVPSRFSGSGSGTKFSLTISSLQPDDFATFYCQQYHSYPYTFGQGTKLEIK
B2: RUPA-117 (Fab) (Fab, V domains shown)
VH: B1 VH with I53V, P64S, L69V, V94L
VL: B1 VL with S31I, G66A
B3: RUPA-29 (hIgG1) (antibody, V domains shown)
VH: QVHLVESGGGVVQPGRSLRLSCAASGFTFRSYGMHWVRLAPGKGLEWVTAIWYDGSKKHFADSVKGRFTISRDNSKNTLYLQMSSLRVEDTAVYYCARDFAHGAFYPVDWGRGTLVTVSS
VL: SYELTQPPSVSVSPGQTARITCSGDALPKKHAYWYQQKSGQAPVLVIYDDSKRPSGIPERFSGSSSGTMATLSISGAQVEDEAAYYCYSSDTSANYWVFGGGTKLTVL
B4: RUPA-29 (Fab) (Fab, V domains shown)
VH: B3 VH
VL: B3 VL
B5: RUPA-160 (hIgG1) (antibody, V domains shown)
VH: QVQLVQSGAEVKKPGASVKASCKASGYTFDNFDIIWARQATGQGLEWMGWMNPNTGKKGYAQNLKDRVTMTRDSSISTAYLELSSLRSEDTAVYYCVRAVGSYYGSGGWFDPWGQGTLVTVSS
VL: QSVLTQPPSASGTPGQRVTIACSGSSSNIGGNNVKWYQQLPGTAPKLVIYNNDERPPGVPDRVSGSKSGTSASLAISGVQSEDEADYYCATWDDSMKREVFGGGTKLTVL
B6: RUPA-54 (hIgG1) (antibody, V domains shown)
VH: QVQLVESGGGVVQPGRSLRLSCTASGFTFRSYGIHWVRQAPGKGLQWVAFISYDGRNKYYADSVKGRFTISRDNSKNTLYLQMSGLRADDTAVYYCAKDSDNDCTATSCYTVSWGQGTLVTVSS
VL: SYELTQPPSVSVSPGQTARITCSGDALPKKYAYWYQQKSGQAPVLVIYEDKKRPSGIPERFSGSSSGTMATLTISGAQVEDEADYYCYSTDSRTDHGGIFGGGTKLTVL
B7: RUPA-100 (hIgG1) (antibody, V domains shown)
VH: QVQLVESGGGVVQPGRSLRLSCAASGFSFSHYGMHWVRQAPGKGLEWVAVISYDGNYKYYGDSVKGRFTISRDNFKNTLYLQMNSLRPEDTAVYYCAKGKAHSCVSTSCYTDFWGQGTLVTVPS
VL: B6 VL with K51S, A83G, R93S, T94Y, D95N, G97R, I99V
B8: RUPA-50 (hIgG1) (antibody, V domains shown)
VH: QVHLVESGGGVVQPGRSLRLSCAASGFTFRSYGMHWVRRVPGKGLEWVATISYDETFKDYPDSVKGRFTISRDNSKNTLFLQMNSLRPADTAVYYCAKDRAHSMHYFEYWGRGTLVTVSS
VL: SYELTQPPSVSVSPGQTARLTCSGDALPKKFAYWYQLKSGQAPVLVIYEDSKRPSGIPERFSGSSSGTTATLTISGAQVEDEADYYCYSRDGSGDQKNIFGGGTKLTVL
B9: RUPA-47 (Fab) (Fab, V domains shown)
VH: QVQLVQSGAEVKKPGASVKLSCTASGYTFTNFGITWVRQAPGQGLEWMAWISVYSGDTDYAQRFQGRVTMTTDTSTRTAYMEMRSLSFDDTAVYYCVRGGRDSPILGGYWGQGTLVTVSS
VL: EIVLTQSPGTLSLSPGERVTLSCRASQSVRSMYLAWYQQKPGQAPRLLIHGASIRATGIPDRFSGSGSGTDFTLTISRLEREDFAVYYCHQYGSSPLTFGGGTKVESK

Experiments:
[1] = biological target: Pfs48/45 6C.mAgE1 (D320H; C terminal 6x HIS tag) (Plasmodium falciparum); assay: BLI
[2] = biological target: Pfs48/45 6C.mAgE1 (K416N; C terminal 6x HIS tag) (Plasmodium falciparum); assay: BLI
[3] = biological target: Pfs48/45 6C.mAgE1 (L314I; C terminal 6x HIS tag) (Plasmodium falciparum); assay: BLI
[4] = biological target: Pfs48/45 6C.mAgE1 (S322N; C terminal 6x HIS tag) (Plasmodium falciparum); assay: BLI
[5] = biological target: Pfs48/45 in its native configuration on the female gamete surface membrane (Plasmodium falciparum NF54 (endogenous in gametes))
[6] = biological target: Pfs48/45 in its native configuration on the female gamete surface membrane (Plasmodium falciparum NF54 (endogenous in gametes)); remark: listed apart in the source

Binder	Kd [2]	other [5]	also measured
B1	< 20 nM	–	Kd [1]: < 20 nM; Kd [3]: < 20 nM; Kd [4]: < 20 nM
B2	< 20 nM	–	Kd [1]: < 20 nM; Kd [3]: < 20 nM; Kd [4]: < 20 nM
B3	–	> 80 % TRA	–
B4	109 nM	–	–
B5	–	80 % TRA	–
B6	–	> 80 % TRA	–
B7	–	> 80 % TRA	–
B8	–	> 80 % TRA	–
B9	–	–	other [6]: 100 % TRA
